According to paper PMC8888459, “During FeS cluster biogenesis, ferredoxin and frataxin use overlapping binding sites on yeast cysteine desulfurase Nfs1” (The Journal of Biological Chemistry, 2022):

Biological target: T1, NIA–Isu1 complex with S. cerevisiae Isu1 (S. cerevisiae | E. coli (endogenous in …, UniProt P25374 37-497; Q6Q560 1-94; P0A6A8 1-78; Q03020 28-165)
T1 construct: Nfs1, mitochondrial cysteine desulfurase of S. cerevisiae; Isd11 of S. cerevisiae; acyl carrier protein of E. coli (ACPEc), endogenous in the expression host, 8.6 kD; Isu1, FeS cluster scaffold protein of S. cerevisiae (Isu1Sc); Formed in the reaction mixture from NIA and Isu1Sc; the number of Isu1 chains in the complex was not measured here; also called NIA–Isu1Sc; NIA and Isu1Sc mixture; …
T1 sequence (P25374 37-497, chain 1 of 4): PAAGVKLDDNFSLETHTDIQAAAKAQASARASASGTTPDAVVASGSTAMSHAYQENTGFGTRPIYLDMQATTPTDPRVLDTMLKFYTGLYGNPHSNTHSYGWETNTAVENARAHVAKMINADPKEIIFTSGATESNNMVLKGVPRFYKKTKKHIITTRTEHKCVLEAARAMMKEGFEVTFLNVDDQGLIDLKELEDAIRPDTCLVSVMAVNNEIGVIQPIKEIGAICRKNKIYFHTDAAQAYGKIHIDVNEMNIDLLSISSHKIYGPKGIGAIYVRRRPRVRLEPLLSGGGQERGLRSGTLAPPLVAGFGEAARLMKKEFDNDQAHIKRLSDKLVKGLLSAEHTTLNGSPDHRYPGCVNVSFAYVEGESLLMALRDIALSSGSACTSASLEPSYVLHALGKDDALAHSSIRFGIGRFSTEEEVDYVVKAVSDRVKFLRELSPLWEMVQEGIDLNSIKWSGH
T1 sequence (Q6Q560 whole entry, chain 2 of 4): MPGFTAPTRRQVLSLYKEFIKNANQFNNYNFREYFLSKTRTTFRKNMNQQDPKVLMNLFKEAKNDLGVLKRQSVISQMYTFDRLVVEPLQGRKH
T1 sequence (P0A6A8 whole entry, chain 3 of 4): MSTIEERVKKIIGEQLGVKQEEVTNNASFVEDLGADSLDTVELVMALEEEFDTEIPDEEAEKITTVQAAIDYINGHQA
T1 sequence (Q03020 28-165, chain 4 of 4): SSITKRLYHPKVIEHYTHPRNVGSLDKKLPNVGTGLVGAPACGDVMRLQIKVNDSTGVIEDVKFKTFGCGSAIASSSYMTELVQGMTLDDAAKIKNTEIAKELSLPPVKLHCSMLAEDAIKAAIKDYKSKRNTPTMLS
Assay: pull-down; competition: Yah1^GST (2.5 μM) with NIA (5 μM), with or without Isu1Sc or Isu1Ct (7.5 μM), then Yfh1 WT or DE/KK added (12.5 μM or increasing concentrations); glutathione resin; densitometry, amount without Yfh1 set as 100%; buffer PD
Settings: both partners purified

percent reduction of Nfs1, Isd11 and Isu1 pulled down with Yah1^GST at a fivefold excess of Yfh1 (12.5 μM): 85%
B1: Yfh1 (frataxin) with a C-terminal polyhistidine tag (natural protein, S. cerevisiae, UniProt Q07540 52-174, looked up)
chain: VESSTDGQVVPQEVLNLPLEKYHEEADDYLDHLLDSLEELSEAHPDCIPDVELSHGVMTLEIPAFGTYVINKQPPNKQIWLASPLSGPNRFDLLNGEWVSLRNGTKLTDILTEEVEKAISKSQ
notes: Yfh1, mitochondrial frataxin of S. cerevisiae; also called Yfh1 (WT); source: E. coli expression systems
